Earlier results as cited in US20220280439A1, “METHODS FOR LOWERING THE INFECTION RATE OF VIRUSES” (Finncure Oy, priority 2020, published 2022).
pKd: −log10 of the molar value.

Molecular target: ACE2 (Homo sapiens, UniProt Q9BYF1)
Details: simulation, ref [8]; for binding affinity towards the ACE2 receptor: compared with hexapeptide YKYRYL

Chain of ACE2 (Q9BYF1 18-805): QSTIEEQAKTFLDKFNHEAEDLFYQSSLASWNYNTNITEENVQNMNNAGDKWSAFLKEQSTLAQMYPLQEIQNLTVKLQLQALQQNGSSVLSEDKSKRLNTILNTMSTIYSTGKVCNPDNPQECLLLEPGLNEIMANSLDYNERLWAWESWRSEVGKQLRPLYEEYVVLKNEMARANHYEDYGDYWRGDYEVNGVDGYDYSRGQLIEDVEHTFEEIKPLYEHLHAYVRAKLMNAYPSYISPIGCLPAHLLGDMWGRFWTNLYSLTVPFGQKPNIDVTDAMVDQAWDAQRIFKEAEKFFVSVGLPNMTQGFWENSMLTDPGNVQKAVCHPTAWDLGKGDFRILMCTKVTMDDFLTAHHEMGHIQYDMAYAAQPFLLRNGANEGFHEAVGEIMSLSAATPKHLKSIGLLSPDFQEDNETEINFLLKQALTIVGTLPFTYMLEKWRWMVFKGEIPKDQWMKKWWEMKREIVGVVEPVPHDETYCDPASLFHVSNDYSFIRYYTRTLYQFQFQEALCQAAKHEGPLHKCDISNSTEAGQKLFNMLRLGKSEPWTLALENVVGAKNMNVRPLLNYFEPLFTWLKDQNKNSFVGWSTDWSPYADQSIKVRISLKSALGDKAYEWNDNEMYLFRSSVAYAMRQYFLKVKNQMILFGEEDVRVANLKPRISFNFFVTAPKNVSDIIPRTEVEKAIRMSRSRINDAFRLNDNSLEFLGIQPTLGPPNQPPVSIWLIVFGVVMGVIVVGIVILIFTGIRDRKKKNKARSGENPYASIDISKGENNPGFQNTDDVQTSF

YKYNYI (Potential alternative synthetic hexapeptide variant) [alternative synthetic hexapeptide variant from simulation]
binding affinity towards the ACE2 receptor: even stronger binding affinity

YKYNYL (Potential alternative synthetic hexapeptide variant) [alternative synthetic hexapeptide variant from simulation]
binding affinity towards the ACE2 receptor: even stronger binding affinity

YKYRYL
pKd (binding to ACE2, estimated): 4.34
